“Also recorded” adds a separate entry of the source.
Columns and labels:
[1] = system: primary bronchial epithelial cells from normal subjects; experiment: Proliferation assay (methylene blue), primary bronchial epithelial cell cultures from normal controls; assay type: cell-based, human; conditions: 1.7 nM EGF for 24 hours vs serum free medium, FIG. 2a
Description: (§1) Bronchial brushings were taken from non-atopic, non-asthmatic control subjects and asthmatic subjects. Volunteers were characterised according to symptoms, pulmonary function and medication. Assessment of asthma severity was in accordance with the GINA guidelines on the diagnosis and management of asthma (Bousquet (2000) Global initiative for asthma (GINA) and its objectives.
(§2) Bronchial brushings were obtained by bronchoscopy using a fibreoptic bronchoscope (Olympus FB-20D, Tokyo, Japan) in accordance with standard published guidelines (Hurd S. Z. (1991) J. Allergy Clin. Immunol. 88, 808-814). Bronchial epithelial cells were obtained using a standard sterile single-sheathed nylon cytology brush (Olympus BC 9C-26101; Tokyo, Japan). […] Epithelial cell purity was assessed by performing differential cell counts on cytospins of the harvested cell suspension. […]
(§3) Cells were prepared in 24 well trays at a seeding density of a minimum of 4×10^4 cells/ml primary BECs. […] Absorbance of the eluant was determined using a Multiskan ascent plate reader after a 1:10 dilution with 1:1 ethanol:0.1% HCl to provide an absorbance within the linear range of the plate reader. Absorbance was read using a 630 nm filter and each sample was tested in duplicate. A standard curve was generated by direct cell counting to enable cell number to be related to methylene blue readings. […]

[2] = system: primary bronchial epithelial cells from asthmatic subjects; experiment: Proliferation assay (methylene blue), primary bronchial epithelial cell cultures from asthmatic subjects; assay type: cell-based, human; conditions: 1.7 nM EGF for 24 hours vs serum free medium, FIG. 2b
Description: as §1, §2, §3

B1: EGF: epithelial growth factor; wild-type mouse EGF produced in Pischia pastoris (protein)
chain: WQTGNCQPGPLERSERSGTCAGPAPFLVFSQGKSISRIDPDGTNHQQLVVDAGISADMDIHYKKERLYWVDVERQVLLRVFLNGTGLEKVCNVERKVSGLAIDWIDDEVLWVDQQNGVITVTDMTGKNSRVLLSSLKHPSNIAVDPIERLMFWSSEVTGSLHRAHLKGVDVKTLLETGGISVLTLDVLDKRLFWVQDSGEGSHAYIHSCDYEGGSVRLIRHQARHSLSSMAFFGDRIFYSVLKSKAIWIANKHTGKDTVRINLHPSFVTPGKLMVVHPRAQPRTEDAAKDPDPELLKQRGRPCRFGLCERDPKSHSSACAEGYTLSRDRKYCEDVNECATQNHGCTLGCENTPGSYHCTCPTGFVLLPDGKQCHELVSCPGNVSKCSHGCVLTSDGPRCICPAGSVLGRDGKTCTGCSSPDNGGCSQICLPLRPGSWECDCFPGYDLQSDRKSCAASGPQPLLLFANSQDIRHMHFDGTDYKVLLSRQMGMVFALDYDPVESKIYFAQTALKWIERANMDGSQRERLITEGVDTLEGLALDWIGRRIYWTDSGKSVVGGSDLSGKHHRIIIQERISRPRGIAVHPRARRLFWTDVGMSPRIESASLQGSDRVLIASSNLLEPSGITIDYLTDTLYWCDTKRSVIEMANLDGSKRRRLIQNDVGHPFSLAVFEDHLWVSDWAIPSVIRVNKRTGQNRVRLQGSMLKPSSLVVVHPLAKPGADPCLYRNGGCEHICQESLGTARCLCREGFVKAWDGKMCLPQDYPILSGENADLSKEVTSLSNSTQAEVPDDDGTESSTLVAEIMVSGMNYEDDCGPGGCGSHARCVSDGETAECQCLKGFARDGNLCSDIDECVLARSDCPSTSSRCINTEGGYVCRCSEGYEGDGISCFDIDECQRGAHNCGENAACTNTEGGYNCTCAGRPSSPGLSCPDSTAPSLLGEDGHHLDRNSYPGCPSSYDGYCLNGGVCMHIESLDSYTCNCVIGYSGDRCQTRDLRWWELRHAGYGQKHDIMVVAVCMVALVLLLVLGMWGTYYYRTRKQLSNPPKNPCDEPSGSVSSSGPNSSSGAAVASCPQPWFVVLEKHQDPKNGSLPADGTNGAVVDAGLSPSLQLGSVHLTSWRQKPHIDGMGTGQSCWIPPSSDRGPQEIEGNSHLPSYRPVGPEKLHSLQSANGSCHERAPDLPRQTEPVQ
effect on cell number (proliferation) [1]: no effect on cell number; also recorded: unaffected | effect on cell number (proliferation) [2]: small but significant increase in cell number; also recorded: require exogenous EGF for maximal proliferation

From US20080070838A1, “Growth Factor Treatment for Asthma” (University of Southampton, priority 2004, published 2008)
